B1: KRT13 (parent)
chain: TPGIDLTRVLAEMREQYEAMAERN

Here are results for 94 variants from the supplement of paper PMC10567573.
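Further: lentivirally expressed fusions sorted by FACS into six bins by GFP to DsRed ratio, PSI derived from sequencing read proportions per bin multiplied by bin number.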

The series covers variants of B1. Nature of the series: protein stability index of a GFP-peptide fusion (GPS, HEK-293T) (PSI 1-6); higher = more stable. As to conditions: c terminus: a fixed tail appended.
Turning to TPGIDLTYVLAEMREQYEAMAERN, the protein stability index was 3.39.
With TPGIDLTRVLAEMLEQYEAMAERN, the protein stability index worked out at 2.42.
The same measure for TPGIDLTRVLAEMVEQYEAMAERN: 3.14; for TPGIDLTRVLAEMKEQYEAMAERN: 3.69; for TPGIDLTRVLAEMSEQYEAMAERN: 3.74.
On to TPGIDLTRVLAEMWEQYEAMAERN, for which the protein stability index amounted to 4.01.
As to TPGIDLTRVLAEMEEQYEAMAERN, the protein stability index was found to be 4.28.
Consider TPGIDLTRVLAEMAEQYEAMAERN, for which the protein stability index worked out at 2.08.
The same measure for TPGIDLTRVLAEMDEQYEAMAERN: 5.07; for TPGIDLTRVLAEMHEQYEAMAERN: 3.61.
TPGIDLTRVLAEMMEQYEAMAERN: the protein stability index was 3.69.
The same measure for TPGIDLTRVLAEMQEQYEAMAERN: 4.46; for TPGIDLTRVLAEMTEQYEAMAERN: 4.44.
Take TPGIDLTRVLAEMYEQYEAMAERN: the protein stability index came to 3.61.
For the variant TPGIDLTRVLAEMNEQYEAMAERN, the protein stability index turned out to be 4.55.
Regarding TPGIDLTRVLAEMFEQYEAMAERN, the protein stability index was 3.65.
In the case of TPGIDLTRVLAEMPEQYEAMAERN, the protein stability index was determined as 4.42.
As for TPGIDLTRVLAEMCEQYEAMAERN, the protein stability index is 3.04.
The same measure for TPGIDLTRVLAEMRELYEAMAERN: 2.94; for TPGIDLTRVLAEMRENYEAMAERN: 3.8; for TPGIDLTRVLAEMRESYEAMAERN: 3.17.
For TPGIDLTRVLAEMRECYEAMAERN, the protein stability index is 4.57.
In the case of TPGIDLTRVLAEMREYYEAMAERN, the protein stability index turned out to be 4.01.
TPGIDLTRVLAEMREKYEAMAERN: the protein stability index was found to be 4.78.
Consider TPGIDLTRVLAEMREEYEAMAERN, for which the protein stability index turned out to be 3.97.
Consider TPGIDLTRVLAEMREIYEAMAERN, for which the protein stability index was 3.38.
Under TPGIDLTRVLAEMREDYEAMAERN stands 4.61.
Regarding TPGIDLTRVLAEMREHYEAMAERN, the protein stability index was 3.31.
Take TPGIDLTRVLAEMREVYEAMAERN: the protein stability index came out at 3.82.
Consider TPGIDLTRVLAEMRERYEAMAERN, for which the protein stability index came out at 4.84.
Turning to TPGIDLTRVLAEMREPYEAMAERN, the protein stability index came out at 4.08.
In the case of TPGIDLTRVLAEMREWYEAMAERN, the protein stability index was 3.73.
As to TPGIDLTRVLAEMREFYEAMAERN, the protein stability index came out at 3.21.
As for TPGIDLTRVLAEMRETYEAMAERN, the protein stability index was determined as 3.39.
As to TPGIDLTRVWAEMREQYEAMAERN, the protein stability index turned out to be 4.09.
On to TPGIDLTRVMAEMREQYEAMAERN, for which the protein stability index turned out to be 4.48.
As to TPGIDLTRVFAEMREQYEAMAERN, the protein stability index stood at 4.55.
The same measure for TPGIDLTRVYAEMREQYEAMAERN: 4.4; for TPGIDLTRVSAEMREQYEAMAERN: 4.87.
Consider TPGIDLTRVDAEMREQYEAMAERN, for which the protein stability index was found to be 5.17.
For TPGIDLTRVGAEMREQYEAMAERN, the protein stability index came out at 5.23.
For the variant TPGIDLTRVNAEMREQYEAMAERN, the protein stability index stood at 5.71.
In the case of TPGIDLTRVIAEMREQYEAMAERN, the protein stability index was found to be 3.25.
Under TPGIDLTRVCAEMREQYEAMAERN stands 4.22; under TPGIDLTRVHAEMREQYEAMAERN, 4.95; under TPGIDLTRVVAEMREQYEAMAERN, 4.8.
Under TPGIDLTRVKAEMREQYEAMAERN stands 4.14; under TPGIDLTRVQAEMREQYEAMAERN, 5.15.
As to TPGIDLTRVRAEMREQYEAMAERN, the protein stability index came out at 4.12.
Turning to TPGIDLTRVTAEMREQYEAMAERN, the protein stability index came out at 5.01.
As to TPGIDLTRVPAEMREQYEAMAERN, the protein stability index is 5.31.
For the variant TPGIDLTRVEAEMREQYEAMAERN, the protein stability index stood at 5.2.
For TPGIDLTRVLAEMREQYHAMAERN, the protein stability index was determined as 3.44.
The same measure for TPGIDLTRVLAEMREQYGAMAERN: 3.88; for TPGIDLTRVLAEMREQYRAMAERN: 3.47.
TPGIDLTRVLAEMREQYTAMAERN: the protein stability index was determined as 3.06.
Turning to TPGIDLTRVLAEMREQYQAMAERN, the protein stability index amounted to 3.13.
Take TPGIDLTRVLAEMREQYMAMAERN: the protein stability index is 3.72.
TPGIDLTRVLAEMREQYNAMAERN: the protein stability index was 3.5.
Under TPGIDLTRVLAEMREQYWAMAERN stands 3.62; under TPGIDLTRVLAEMREQYPAMAERN, 2.72; under TPGIDLTRVLAEMREQYDAMAERN, 4.27.
Regarding TPGIDLTRVLAEMREQYYAMAERN, the protein stability index stood at 3.87.
Turning to TPGIDLTRVLAEMREQYCAMAERN, the protein stability index amounted to 2.93.
For the variant TPGIDLTRVLAEMREQYVAMAERN, the protein stability index stood at 4.39.
For the variant TPGIDLTRVLAEMREQYAAMAERN, the protein stability index worked out at 4.23.
TPGIDLTRVLAEMREQYFAMAERN: the protein stability index is 2.84.
For TPGIDLTRVLAEMREQYIAMAERN, the protein stability index worked out at 3.98.
In the case of TPGIDLTRVLAEMREQYKAMAERN, the protein stability index amounted to 3.84.
For TPGIDLTRVLAEMREQYSAMAERN, the protein stability index came out at 3.96.
On to TPGIDLTRVLAYMREQYEAMAERN, for which the protein stability index is 3.37.
TPGIDLTRVLAFMREQYEAMAERN: the protein stability index is 3.42.
With TPGIDLTRVLAIMREQYEAMAERN, the protein stability index was 2.72.
In the case of TPGIDLTRVLARMREQYEAMAERN, the protein stability index was determined as 1.05.
The same measure for TPGIDLTRVLAKMREQYEAMAERN: 2.23.
Turning to TPGIDLTRVLACMREQYEAMAERN, the protein stability index is 2.66.
Turning to TPGIDLTRVLAWMREQYEAMAERN, the protein stability index came out at 3.06.
Under TPGIDLTRVLAMMREQYEAMAERN stands 2.96; under TPGIDLTRVLANMREQYEAMAERN, 3.87.
Turning to TPGIDLTRVLAPMREQYEAMAERN, the protein stability index was 4.36.
TPGIDLTRVLAAMREQYEAMAERN: the protein stability index is 3.15.
As to TPGIDLTRVLAQMREQYEAMAERN, the protein stability index was found to be 4.76.
For the variant TPGIDLTRVLAHMREQYEAMAERN, the protein stability index stood at 3.08.
Under TPGIDLTRVLATMREQYEAMAERN stands 4.09; under TPGIDLTRVLAEMREQYEAIAERN, 3.88.
Consider TPGIDLTRVLAEMREQYEAKAERN, for which the protein stability index was determined as 4.81.
The same measure for TPGIDLTRVLAEMREQYEAAAERN: 4.74; for TPGIDLTRVLAEMREQYEAEAERN: 4.49; for TPGIDLTRVLAEMREQYEALAERN: 3.74.
Take TPGIDLTRVLAEMREQYEAGAERN: the protein stability index was found to be 4.22.
With TPGIDLTRVLAEMREQYEACAERN, the protein stability index was found to be 4.1.
Consider TPGIDLTRVLAEMREQYEAFAERN, for which the protein stability index amounted to 3.42.
Under TPGIDLTRVLAEMREQYEAHAERN stands 4.32; under TPGIDLTRVLAEMREQYEADAERN, 4.79.
